Experimental data taken from the supplement of paper PMC6757056.
± gives the standard deviation of the averaged measurements.

B1: library; a variant is named by its letters at N, in order (parent)
chain: GCUGUCACCGGUGUAUUACCCUAGUGGUCGACCGGUCUGAUGAGUCUNNNNNNAGACGAAACAGC

Columns and labels:
hypoxanthine [1] = variants of: B1; assay: normalized RNA/DNA level with ligand (relative to sTRSVctl = 100) (log10 (% of sTRSVctl)); ligand: hypoxanthine (xanthine aptamer); higher = less ribozyme self-cleavage, higher mRNA level; conditions: ligand concentration (+) RNA-Seq: 5 mM, HEK293T, reporter: mCherry (pCS4076), ligand present: yes
Summary of the method: (§1)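 Library plasmids encoding reporter-linked ribozyme switches (mCherry, or eGFP for some folinic acid experiments) were transfected into HEK293T at 4 µg per 6-well well. Ligand, when used, was added 1 h before transfection. Total RNA was extracted with EDTA 72 h later, then reverse-transcribed, amplified, barcoded and sequenced. RNA level was RNA reads over DNA reads, divided by a spiked-in non-cleaving control (or the top 25 sequences), ×100, log10; only sequences with ≥100 DNA reads were kept.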

hypoxanthine [2] = variants of: B1; assay: normalized RNA/DNA level without ligand (relative to sTRSVctl = 100) (log10 (% of sTRSVctl)); ligand: hypoxanthine (xanthine aptamer); higher = less ribozyme self-cleavage, higher mRNA level; conditions: HEK293T, reporter: mCherry (pCS4076), ligand present: no
Summary of the method: as §1

Variant	normalized RNA/DNA level with ligand (log10) (hypoxanthine [1])	normalized RNA/DNA level without ligand (log10) (hypoxanthine [2])
GCUGUCACCGGUGUAUUACCCUAGUGGUCGACCGGUCUGAUGAGUCUUCACGAAGACGAAACAGC [UCACGA]	1.923 ± 0.011	1.8 ± 0.043
GCUGUCACCGGUGUAUUACCCUAGUGGUCGACCGGUCUGAUGAGUCUCCACGCAGACGAAACAGC [CCACGC]	2.01 ± 0.015	1.864 ± 0.0022
GCUGUCACCGGUGUAUUACCCUAGUGGUCGACCGGUCUGAUGAGUCUGCACGCAGACGAAACAGC [GCACGC]	1.96 ± 0.06	1.86 ± 0.043
GCUGUCACCGGUGUAUUACCCUAGUGGUCGACCGGUCUGAUGAGUCUACACGCAGACGAAACAGC [ACACGC]	1.94 ± 0.033	1.71 ± 0.03
GCUGUCACCGGUGUAUUACCCUAGUGGUCGACCGGUCUGAUGAGUCUUCACGCAGACGAAACAGC [UCACGC]	1.94 ± 0.033	1.78 ± 0.13
GCUGUCACCGGUGUAUUACCCUAGUGGUCGACCGGUCUGAUGAGUCUCCACGGAGACGAAACAGC [CCACGG]	1.91 ± 0.028	1.85 ± 0.025
GCUGUCACCGGUGUAUUACCCUAGUGGUCGACCGGUCUGAUGAGUCUUCACGGAGACGAAACAGC [UCACGG]	1.91 ± 0.043	1.79 ± 0.051
GCUGUCACCGGUGUAUUACCCUAGUGGUCGACCGGUCUGAUGAGUCUCCACGUAGACGAAACAGC [CCACGU]	1.93 ± 0.069	1.827 ± 0.0023
GCUGUCACCGGUGUAUUACCCUAGUGGUCGACCGGUCUGAUGAGUCUGCACGUAGACGAAACAGC [GCACGU]	1.91 ± 0.053	1.73 ± 0.032
GCUGUCACCGGUGUAUUACCCUAGUGGUCGACCGGUCUGAUGAGUCUUCACGUAGACGAAACAGC [UCACGU]	1.92 ± 0.042	1.78 ± 0.062
GCUGUCACCGGUGUAUUACCCUAGUGGUCGACCGGUCUGAUGAGUCUCCACUAAGACGAAACAGC [CCACUA]	1.97 ± 0.042	1.86 ± 0.071
GCUGUCACCGGUGUAUUACCCUAGUGGUCGACCGGUCUGAUGAGUCUACACUAAGACGAAACAGC [ACACUA]	1.94 ± 0.053	1.801 ± 0.0044
GCUGUCACCGGUGUAUUACCCUAGUGGUCGACCGGUCUGAUGAGUCUUCACUAAGACGAAACAGC [UCACUA]	1.92 ± 0.051	1.83 ± 0.088
GCUGUCACCGGUGUAUUACCCUAGUGGUCGACCGGUCUGAUGAGUCUCCACUCAGACGAAACAGC [CCACUC]	2.02 ± 0.059	1.98 ± 0.036
GCUGUCACCGGUGUAUUACCCUAGUGGUCGACCGGUCUGAUGAGUCUGCACUCAGACGAAACAGC [GCACUC]	1.945 ± 0.0064	1.873 ± 0.0092
GCUGUCACCGGUGUAUUACCCUAGUGGUCGACCGGUCUGAUGAGUCUACACUCAGACGAAACAGC [ACACUC]	1.96 ± 0.023	1.97 ± 0.063
GCUGUCACCGGUGUAUUACCCUAGUGGUCGACCGGUCUGAUGAGUCUUCACUCAGACGAAACAGC [UCACUC]	1.99 ± 0.02	2.03 ± 0.026
GCUGUCACCGGUGUAUUACCCUAGUGGUCGACCGGUCUGAUGAGUCUCCACUUAGACGAAACAGC [CCACUU]	1.94 ± 0.024	1.914 ± 0.019
GCUGUCACCGGUGUAUUACCCUAGUGGUCGACCGGUCUGAUGAGUCUACACUUAGACGAAACAGC [ACACUU]	1.95 ± 0.059	1.83 ± 0.059
GCUGUCACCGGUGUAUUACCCUAGUGGUCGACCGGUCUGAUGAGUCUUCACUUAGACGAAACAGC [UCACUU]	1.93 ± 0.043	1.88 ± 0.025
GCUGUCACCGGUGUAUUACCCUAGUGGUCGACCGGUCUGAUGAGUCUACAGAAAGACGAAACAGC [ACAGAA]	1.922 ± 0.012	1.7472 ± 0.0012
